In this data set the target is tRip1-402 (Plasmodium falciparum) (UniProt Q8IL48). The data set is described as follows: competition EMSA. The conditions noted are these: unmodified transcript; scale: fold difference from Sc tRNAPheGAA. For orientation: In EMSA bound probe runs differently from free probe, usually more slowly.

minihelixPhe gave a binding signal of less than 2.

These data come from article PMC8501954.
